From US20020098523A1

Columns and labels:
Human eotaxin (human) [1] = target: Human eotaxin (human) (UniProt P51671); assay: cell-based or functional assay
Human eotaxin (human) [2] = target: Human eotaxin (human) (UniProt P51671); assay: not stated (summary sentence in the introduction)
Human eotaxin (human) [3] = target: Human eotaxin (human) (UniProt P51671); assay: saturation binding of [125I]eotaxin to coated CAT-212 on a Flash Plate, Scatchard plot
Human eotaxin (human) [4] = target: Human eotaxin (human) (UniProt P51671); assay: Flash Plate scintillation competition: unlabelled CAT-212 against coated CAT-212 for [125I]eotaxin; mean of 4 estimates

Sequence of Human eotaxin (human) (P51671 24-97 limits assumed): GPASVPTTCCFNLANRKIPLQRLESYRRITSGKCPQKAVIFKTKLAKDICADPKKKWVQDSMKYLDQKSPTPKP

B1: CAT-212 (scFv, part only; not given: scFv linker and myc/His tag, V domains shown, not shown: another chain or arm of the molecule; small tags and cut ends)
VH: QVQLVQSGGGVVQPGRSLRLSCAASGFTFSSYGMHWVRQAPGKGLEWVAVISYDGSIKHYADSVKGRFTISRDNSKNTLYLQMNSLRTDDTAVYYCAGDTDYGDIDPWGQGTMVTVSS
VL: DIQMTQSPSSVSASVGDRVTITCRASQDISSWLAWYQQKPGKAPKLLIYAASSLQSGVPSRFSGSGSGTDFTLTISSLQPEDFATYYCQQASSFPSITFGQGTRLEIK
B1 was tested, and the IC50, inhibition of eotaxin-induced Ca2+ flux in CCR3 cells (FLIPR, area under the curve) (Human eotaxin (human) [1]) was 5 nM, the IC50, inhibition of eotaxin-mediated chemotaxis of CCR3-transfected L1.2 cells (Human eotaxin (human) [1]) was 0.65 nM and the improvement in chemotaxis neutralisation potency over scFv 3G3 (Human eotaxin (human) [1]) was 1000 fold. The Kd (Human eotaxin (human) [2]) was 0.015 nM, the Kd (Human eotaxin (human) [3]) was 0.146 nM and the IC50 (Human eotaxin (human) [4]) was 0.0425 nM.
